The values that follow come from patent CN114478789A (ANHUI ANKE BIOLOGICAL ENG GROUP CO LTD, dated 2022).

In one assay the target is T1, 鼠源OX40 (mouse, UniProt P47741 20-211, limits assumed).
T1 construct: also called 鼠源OX40抗原
T1 sequence (looked up): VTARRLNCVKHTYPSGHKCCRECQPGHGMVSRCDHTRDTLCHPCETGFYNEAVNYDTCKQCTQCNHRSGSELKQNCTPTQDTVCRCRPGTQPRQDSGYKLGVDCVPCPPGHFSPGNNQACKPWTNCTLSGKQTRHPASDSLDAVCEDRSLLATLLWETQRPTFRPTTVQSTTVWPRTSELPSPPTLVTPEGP
Description: ELISA, mouse OX40 coated. For orientation: In an ELISA, binding on a coated surface is turned into a signal by an enzyme label.

The target in a further assay is T2, rhOX40-Avi-His (human, UniProt P43489 29-214, limits assumed).
T2 construct: also called OX40抗原; 人源OX40
T2 sequence (looked up): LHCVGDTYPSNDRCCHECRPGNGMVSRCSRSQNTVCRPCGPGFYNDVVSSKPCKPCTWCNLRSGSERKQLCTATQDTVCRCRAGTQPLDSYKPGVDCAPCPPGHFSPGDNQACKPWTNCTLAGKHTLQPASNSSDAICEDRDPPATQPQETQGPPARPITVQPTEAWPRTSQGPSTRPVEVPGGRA
Kind of assay: ELISA, human OX40 coated.

B1: L52-2D7H232 (bispecific antibody, human IgG1, kappa)
light: DIQMTQSPSTLSASVGDRVTITCQSSQNVYSNNRLSWYQQKPGKAPKLLIYWTSFLASGVPSRFSGSGSGTEFTLTISSLQPDDFATYYCAGGYSGNLYTFGQGTKLEIKRTVAAPSVFIFPPSDEQLKSGTASVVCLLNNFYPREAKVQWKVDNALQSGNSQESVTEQDSKDSTYSLSSTLTLSKADYEKHKVYACEVTHQGLSSPVTKSFNRGEC
heavy: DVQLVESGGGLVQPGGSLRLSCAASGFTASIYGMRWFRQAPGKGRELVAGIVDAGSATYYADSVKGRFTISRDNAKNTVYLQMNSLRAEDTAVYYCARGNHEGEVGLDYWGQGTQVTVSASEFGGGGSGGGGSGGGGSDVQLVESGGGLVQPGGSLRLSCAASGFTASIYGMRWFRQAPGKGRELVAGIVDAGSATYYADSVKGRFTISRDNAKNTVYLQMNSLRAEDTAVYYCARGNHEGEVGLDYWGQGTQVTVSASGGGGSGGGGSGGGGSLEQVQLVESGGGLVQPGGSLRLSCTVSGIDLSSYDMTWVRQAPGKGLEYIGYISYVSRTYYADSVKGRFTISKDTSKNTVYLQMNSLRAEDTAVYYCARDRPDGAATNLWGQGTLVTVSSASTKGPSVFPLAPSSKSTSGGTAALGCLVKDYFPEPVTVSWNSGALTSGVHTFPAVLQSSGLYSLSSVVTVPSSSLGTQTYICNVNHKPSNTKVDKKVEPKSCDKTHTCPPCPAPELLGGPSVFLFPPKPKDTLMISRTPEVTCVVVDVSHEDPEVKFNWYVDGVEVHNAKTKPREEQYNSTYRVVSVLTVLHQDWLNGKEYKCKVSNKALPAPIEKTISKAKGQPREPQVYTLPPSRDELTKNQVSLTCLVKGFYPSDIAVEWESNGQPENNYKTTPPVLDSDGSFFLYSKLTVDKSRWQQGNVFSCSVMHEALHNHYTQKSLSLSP
notes: Symmetric bispecific: two tandem anti-OX40 nanobodies D7 joined to the heavy chain of the anti-PD-L1 IgG1 L52H232; also called 抗PD-L1与OX40双特异性抗体; 优选抗体L52-2D7H232
Turning to B1, the binding result is “no binding” with 鼠源OX40 and “binds” with rhOX40-Avi-His.

B2: L52-D7H232 (bispecific antibody, human IgG1, kappa, N297A)
light: B1 light
heavy: DVQLVESGGGLVQPGGSLRLSCAASGFTASIYGMRWFRQAPGKGRELVAGIVDAGSATYYADSVKGRFTISRDNAKNTVYLQMNSLRAEDTAVYYCARGNHEGEVGLDYWGQGTQVTVSASEFGGGGSGGGGSGGGGSLEQVQLVESGGGLVQPGGSLRLSCTVSGIDLSSYDMTWVRQAPGKGLEYIGYISYVSRTYYADSVKGRFTISKDTSKNTVYLQMNSLRAEDTAVYYCARDRPDGAATNLWGQGTLVTVSSASTKGPSVFPLAPSSKSTSGGTAALGCLVKDYFPEPVTVSWNSGALTSGVHTFPAVLQSSGLYSLSSVVTVPSSSLGTQTYICNVNHKPSNTKVDKKVEPKSCDKTHTCPPCPAPEDEGGPSVFLFPPKPKDTLMISRTPEVTCVVVDVSHEDPEVKFNWYVDGVEVHNAKTKPREEQYASTYRVVSVLTVLHQDWLNGKEYKCKVSNKALPAPIEKTISKAKGQPREPQVYTLPPCRDELTKNQVSLWCLVKGFYPSDIAVEWESNGQPENNYKTTPPVLDSDGSFFLYSKLTVDKSRWQQGNVFSCSVMHEALHNHYTQKSLSLSP
notes: Symmetric bispecific: anti-OX40 nanobody D7 joined to the heavy chain of the anti-PD-L1 IgG1 L52H232; also called 抗PD-L1与OX40双特异性抗体; 优选抗体L52-D7H232
For B2, the binding result with 鼠源OX40 is listed as “no binding”.

B3: L52H232-2D7 (bispecific antibody, human IgG1, kappa, N297A)
light: B1 light
heavy: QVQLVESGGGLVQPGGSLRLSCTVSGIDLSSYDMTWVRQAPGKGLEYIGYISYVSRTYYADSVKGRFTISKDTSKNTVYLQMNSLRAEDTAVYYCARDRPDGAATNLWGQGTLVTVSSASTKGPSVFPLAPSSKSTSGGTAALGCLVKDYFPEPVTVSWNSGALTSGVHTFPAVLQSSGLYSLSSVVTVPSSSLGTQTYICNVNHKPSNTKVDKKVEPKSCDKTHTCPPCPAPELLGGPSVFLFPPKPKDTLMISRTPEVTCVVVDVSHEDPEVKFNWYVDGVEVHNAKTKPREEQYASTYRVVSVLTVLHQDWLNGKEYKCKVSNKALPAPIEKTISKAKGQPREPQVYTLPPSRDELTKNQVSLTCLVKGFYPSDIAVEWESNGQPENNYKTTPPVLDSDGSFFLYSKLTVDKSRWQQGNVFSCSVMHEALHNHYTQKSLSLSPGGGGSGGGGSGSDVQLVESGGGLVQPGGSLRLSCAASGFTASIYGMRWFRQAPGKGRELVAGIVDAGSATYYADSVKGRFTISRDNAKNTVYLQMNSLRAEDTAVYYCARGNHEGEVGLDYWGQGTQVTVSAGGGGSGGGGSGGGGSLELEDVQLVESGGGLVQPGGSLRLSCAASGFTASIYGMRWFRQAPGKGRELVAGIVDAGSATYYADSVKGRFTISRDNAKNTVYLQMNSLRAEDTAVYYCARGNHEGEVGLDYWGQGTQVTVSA
notes: to be rechecked; also called 抗PD-L1与OX40双特异性抗体
As to B3, the binding result was “no binding” with 鼠源OX40 and “binds” with rhOX40-Avi-His.

B4: L52H232-D7 (bispecific antibody, human IgG1, kappa, N297A)
light: B1 light
heavy: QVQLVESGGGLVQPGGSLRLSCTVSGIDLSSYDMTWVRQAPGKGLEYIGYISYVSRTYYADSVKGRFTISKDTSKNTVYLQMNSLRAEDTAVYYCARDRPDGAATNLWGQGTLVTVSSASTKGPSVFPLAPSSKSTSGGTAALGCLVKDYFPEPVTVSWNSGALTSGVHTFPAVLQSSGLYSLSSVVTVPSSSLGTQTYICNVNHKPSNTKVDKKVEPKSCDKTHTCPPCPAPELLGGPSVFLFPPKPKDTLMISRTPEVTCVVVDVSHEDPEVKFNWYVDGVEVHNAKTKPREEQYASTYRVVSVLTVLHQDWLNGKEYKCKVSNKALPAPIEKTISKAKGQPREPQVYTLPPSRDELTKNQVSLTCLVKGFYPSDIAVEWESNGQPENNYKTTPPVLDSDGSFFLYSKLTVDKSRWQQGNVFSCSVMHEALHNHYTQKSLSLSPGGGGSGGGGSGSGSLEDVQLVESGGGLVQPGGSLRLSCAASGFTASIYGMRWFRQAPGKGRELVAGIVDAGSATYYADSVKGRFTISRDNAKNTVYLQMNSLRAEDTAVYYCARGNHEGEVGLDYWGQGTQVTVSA
notes: Symmetric bispecific: anti-OX40 nanobody D7 joined to the heavy chain of the anti-PD-L1 IgG1 L52H232; also called 抗PD-L1与OX40双特异性抗体
For B4, the binding result with 鼠源OX40 is “no binding”; with rhOX40-Avi-His it was “binds”.
